Assay [1] concerns the target recombinant nucleoprotein derived from influenza viruses subtype A H3N2 (Sino Biological, 40208-[change]) (influenza virus type A H3N2).
Assay [2] concerns the target recombinant nucleoprotein derived from influenza viruses subtype A H1N1 (Sino Biological, 11675-[change]) (influenza virus type A H1N1).

Sequence of recombinant nucleoprotein derived from influenza viruses subtype A H1N1 (Sino Biological, 11675-[change]) (influenza virus type A H1N1) (P03466 whole entry): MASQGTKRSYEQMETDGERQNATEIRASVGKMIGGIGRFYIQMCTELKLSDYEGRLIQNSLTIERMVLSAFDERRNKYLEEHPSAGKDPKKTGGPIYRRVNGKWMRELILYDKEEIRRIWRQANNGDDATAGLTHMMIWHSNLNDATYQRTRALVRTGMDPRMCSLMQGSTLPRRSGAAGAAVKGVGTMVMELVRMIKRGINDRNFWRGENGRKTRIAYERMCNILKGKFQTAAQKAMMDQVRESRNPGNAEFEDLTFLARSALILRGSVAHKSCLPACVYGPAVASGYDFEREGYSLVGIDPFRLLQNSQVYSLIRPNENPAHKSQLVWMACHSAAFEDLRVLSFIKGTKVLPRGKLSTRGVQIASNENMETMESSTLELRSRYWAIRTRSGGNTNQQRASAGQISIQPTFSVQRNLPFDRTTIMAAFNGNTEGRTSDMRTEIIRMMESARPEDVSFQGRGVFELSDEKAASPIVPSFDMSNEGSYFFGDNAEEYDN

B1: VHH antibody consisting of the amino acid sequence represented by SEQ ID NO: 08 (VHH)
VHH: QVQLVESGGGLVQAGGSLRLSCAASRTIFNPNVMGWYRQAPGKQRELVADISLSGSTNYADSVKGRFTISRDNAKNTMYLQMNSLKPEDTAVYYCNTNAISGAPGRYWGQGTQVTVSS
For the molecule B1, the 50% effective concentration (EC50 (read off the curve)) in assay [1] came to 0.03 µg/mL; in assay [2], 0.004 µg/mL.

The values are drawn from US20170349647A1.
